Assay results from PMC3169180.

T1: mature form of full-length OmpA (OmpA325) (E. coli K12 MG1655), P0A910
T1 chain: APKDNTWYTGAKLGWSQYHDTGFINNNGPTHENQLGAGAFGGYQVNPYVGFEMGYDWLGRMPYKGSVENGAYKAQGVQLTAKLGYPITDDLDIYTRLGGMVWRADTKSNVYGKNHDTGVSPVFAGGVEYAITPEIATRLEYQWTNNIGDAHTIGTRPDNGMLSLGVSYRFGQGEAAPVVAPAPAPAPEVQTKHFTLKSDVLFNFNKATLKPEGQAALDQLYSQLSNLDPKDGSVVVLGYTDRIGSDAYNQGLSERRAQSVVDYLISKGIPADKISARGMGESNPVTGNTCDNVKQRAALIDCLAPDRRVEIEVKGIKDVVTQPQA

B1: mature form of full-length OmpA (OmpA325), P0A910 22-346 (natural protein)
chain: T1 chain

Experiments:
[1] = biological target: N-terminal barrel domain of OmpA (OmpA171, residues 1–171) (E. coli K12 MG1655); test: circular dichroism kinetics
[2] = biological target: T1, mature form of full-length OmpA …; test: AUC; conditions: remark: other sources report otherwise

Molecule | critical nucleus size n* (nucleated growth polymerization model) [1] [molecules] | order of the self-association reaction (initial rates) [1] | percent monomer (3 μM OmpA325, 450 mM urea, 30 minutes) [2] [%]
N-terminal barrel domain of OmpA (OmpA171, residues 1–171) (domain or fragment) | 2.6 | 3.2 | 
B1 |  |  | 75
